The values that follow come from patent US8349318B2, “Use of specifically engineered enzymes to enhance the efficacy of prodrugs” (The Board of Trustees of the University of Illinois, priority 2008, dated 2013).

Like-named read-outs stand apart in the source and are kept apart here.

The test system of data set [1] is HL60 cell line. Briefly: Apoptosis assay (Annexin V and PI staining) in CD33 positive HL60 cells. It is filed as cell-based, human. Conditions: HL60, AraC at 1 μM, after 96 hours. The procedure: The HuM195 antibody will only bind and internalize to cells expressing CD33. Thus, the HL60 cell line (derived from AML cells) and the NB4 cell line, which are CD33 positive, were used to test the activity of the HuM195-dCK system in live cells. The cells were treated with AraC, the HuM195-dCK conjugate, or the combination of HuM195-dCK and the AraC. Annexin V and propidium iodide (PI) staining was used to identify apoptotic cells. […] The combination of AraC with the conjugate results in 20% more killing than AraC alone.

The subject of data set [2] is parent 293 cells. Briefly: Proliferation of parental 293 cells treated with nucleoside analogs. In kind it is cell-based, human. The protocol:
Next, whether the dCK-S74E/R104M/D133A variant could inhibit cell growth in the presence of NAs including BVdU was tested. Human 293 cells were stably transfected with a recombinant expression construct encoding the dCK-S74E/R104M/D133A protein. The proliferative capacity of the stably transfected cell line was compared to the parental 293 cells after treating the cells with several nucleoside analogs such as AraC, gemcitabine, and BVdU. Since some of the nucleosides were first dissolved in the solvent DMSO, equal amounts of DMSO were used as control.

Data set [3] concerns NB4 cell line. Briefly: Apoptosis assay in CD33 positive NB4 cells. In kind it is cell-based. Conditions: NB4, AraC 250 nM, after 96 hours. The procedure:
The NB4 cells were also treated with AraC, the HuM195-dCK conjugate, or the combination of HuM195-dCK and the AraC, and an apoptosis assay was performed as above. The AraC dose used, however, was decreased from 1000 nM to 250 nM. The results were similar to those observed in the HL60 cells (FIG. 8). The conjugate with AraC (right bars) achieve ˜65% cell killing after 96 hours, whereas AraC alone was below 40%.

Data set [4] has as its system SKBR-3. Briefly: MTS cytotoxicity assay in breast cancer-derived cell line. In kind it is cell-based, human. Conditions: SKBR-3, 96 hours. The procedure:
The cells were then exposed to varying amount of BVdU for 96 hours. […] Cell viability was measured using the MTS cytotoxicity assay according to the manufacturer's instructions (Promega). […] MTS was reduced by cellular dehydrogenase into formazan, which is soluble in tissue culture medium. […] Since the production of formazan is proportional to the number of living cells, the intensity of the produced color is a good indication of the viability of the cells.
Background: Formazan colour is commonly taken as a measure of viable cells.

The target in data set [5] is T1, R104Q-D133A dCK (Homo sapiens, UniProt P27707, D133A/R104Q).
T1 construct: made in house
T1 sequence (P27707 whole entry R104Q/D133A): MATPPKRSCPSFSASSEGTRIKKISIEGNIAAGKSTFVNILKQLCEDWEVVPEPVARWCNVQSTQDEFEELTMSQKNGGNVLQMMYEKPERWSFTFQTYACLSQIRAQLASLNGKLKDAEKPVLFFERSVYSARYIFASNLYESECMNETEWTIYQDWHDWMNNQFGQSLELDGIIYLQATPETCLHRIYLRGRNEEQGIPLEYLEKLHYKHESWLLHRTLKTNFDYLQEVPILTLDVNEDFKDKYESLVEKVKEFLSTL
Briefly: Kinetic assay of nucleoside phosphorylation by R104Q-D133A dCK. Conditions: nucleoside 200 uM. In kind it is biochemical.

The target in data set [6] is dCK R104L/D133A (Homo sapiens, UniProt P27707, D133A/R104L). Briefly: Kinetic characterization of nucleoside phosphorylation by dCK R104L/D133A. As to conditions: Table 9.
dCK R104L/D133A, sequence (P27707 whole entry R104L/D133A, the tested form may be a part): as the sequence (P27707 whole entry R104Q/D133A) above, with Q104L counted along it
For data set [7], the target named is T2, Wild Type dCK (Homo sapiens, UniProt P27707). Set-up: The electron density for dCK extended to the last residue (Leu260), while the N-terminus (residues 1 to 19) was flexible; His-tag (N); made in house; host or cells: E. coli BL21(DE3). Conditions: Lotfi et al., 1999; Mansson et al., 2003; cited from earlier work.
T2 sequence (P27707 whole entry, the tested form may be a part): as the sequence (P27707 whole entry R104Q/D133A) above, with Q104R, A133D counted along it
The target in data set [8] is T3, A100V/R104M/D133A-dCK (Homo sapiens, UniProt P27707, A100V/D133A/R104M).
T3 construct: His-tag (N); made in house
T3 sequence (P27707 whole entry A100V/R104M/D133A): as the sequence (P27707 whole entry R104Q/D133A) above, with A100V, Q104M counted along it
As to the kind of experiment: Steady-state kinetic assay of nucleoside phosphorylation by A100V/R104M/D133A-dCK. It is filed as biochemical.

The target of data set [9] is T2, Wild Type dCK. Briefly: Steady-state kinetic (colorimetric, enzyme-coupled) assay of nucleoside phosphorylation by wild type dCK.
Data set [10] is described as follows: Kinetic characterization of dCK variants, substrate D-dT. In kind it is biochemical. Conditions: for rate of phosphorylation, D-dT: Table 8, nucleoside 200 mM, ATP 1 μM [sic]; for kobs D-dT: nucleoside concentration of 200 μM, ATP 1 mM; for Rel kobs (D-dT): relative to WT.
Data set [11] is described as follows: Kinetic characterization of dCK variants, substrate D-dC. In kind it is biochemical. Conditions: for rate of phosphorylation, D-dC: Table 8, nucleoside 200 mM, ATP 1 μM [sic]; for kobs D-dC: nucleoside concentration of 200 μM, ATP 1 mM; for Rel kobs (D-dC): relative to WT.
A short description of data set [12]: Kinetic characterization of dCK variants, substrate D-dG. As to conditions: for rate of phosphorylation, D-dG: Table 8, nucleoside 200 mM, ATP 1 μM [sic]; for kobs D-dG: nucleoside concentration of 200 μM, ATP 1 mM; for Rel kobs (D-dG): relative to WT. It is filed as biochemical.
Data set [13] in a line: Kinetic characterization of dCK variants, substrate D-dA. In kind it is biochemical. As to conditions: for kobs D-dA: nucleoside concentration of 200 μM, ATP 1 mM; for Rel kobs (D-dA): relative to WT.
The nature of data set [14]: Kinetic characterization of dCK variants, substrate L-dT. As to conditions: for rate of phosphorylation, L-dT: Table 8, nucleoside 200 mM, ATP 1 μM [sic]; for kobs L-dT: nucleoside concentration of 200 μM, ATP 1 mM; for Rel kobs (L-dT): relative to WT. In kind it is biochemical.
Data set [15] in a line: Kinetic characterization of dCK variants, substrate AraC. It is filed as biochemical. Conditions: for kobs AraC: nucleoside concentration of 200 μM, ATP 1 mM; for Rel kobs (AraC): relative to WT.
Data set [16] can be described thus: Kinetic analysis of dCK variants, substrate L-dU. In kind it is biochemical. As to conditions: Table 8; nucleoside 200 mM, ATP 1 μM [sic]. The protocol:
In a separate experiment, those mutant dCKs were analyzed in the presence of a nucleoside substrate at a concentration of 200 mM, and a phosphoryl donor ATP at a concentration of 1 μM.

Data set [17] in a line: Kinetic characterization of dCK variants, substrate gemcitabine. In kind it is biochemical. Conditions: for rate of phosphorylation, Gem: Table 8, nucleoside 200 mM, ATP 1 μM [sic]; for kobs Gem: nucleoside concentration of 200 μM, ATP 1 mM; for Rel kobs (Gem): relative to WT.
For data set [18] the following is noted: Iyidogan, et al., 2008; read-out: Km for D-dT; cited from earlier work.
For data set [19] the following is noted: McSorley et al., 2008; cited from earlier work.
Where [20] appears, read: Wild Type dCK, 0.4 μM dCK, 1 mM ATP.Mg, 37° C.

Regarding `Nc1ccn([C@@H]2O[C@H](CO)[C@@H](O)[C@@H]2O)c(=O)n1` [Ara-C, 1-β-D-arabinofuranosylcytosine], the “cell death (apoptotic cells)” value in [1] is approximately 50%. Further, the inhibition of growth entry in data set [2] (1 μM) is listed as “no inhibitory effect”. Moreover, in data set [3], the cell killing result is “below 40%”.
`O=c1[nH]c(=O)n([C@H]2C[C@H](O)[C@@H](CO)O2)cc1/C=C/Br` [BVdU, (E)-5-(2-bromovinyl)-2′-deoxyuridine]: the “effect on cell viability / proliferation” value in data set [4] is listed as “no detrimental effect”. In addition, the inhibition of growth result in data set [2] (highest tested concentration of 50 μM) was “did not inhibit the growth”.
On to `Cc1cn([C@H]2C[C@H](O)[C@@H](CO)O2)c(=O)[nH]c1=O` [D-dT, D-thymidine], for which, in [5], the “kcat R104Q-D133A dCK (with 1 mM ATP as donor)” value came out at 0.15 s⁻¹. Also, the “kcat, R104L/D133A” value in [6] came to 3.20 ± 0.07 s⁻¹. Also, the Km in data set [6] (read-out: Km, R104L/D133A) stood at 24.3 ± 3.6 µM.
In the case of `Nc1nc(Cl)nc2c1ncn2[C@@H]1O[C@H](CO)[C@@H](O)[C@@H]1F` [clofarabine, 2-chloro-2′-arabino-fluoro-2′-deoxyadenosine], the “efficiency as substrate for dCK relative to cladribine” value in data set [7] is approximately 3 fold.
As a reminder, the inhibition is the percentage by which the read-out fell short of the control. By kcat is commonly meant the maximal rate divided by the concentration of active sites. As to `Nc1ccn([C@@H]2O[C@H](CO)[C@@H](O)C2(F)F)c(=O)n1` [gemcitabine, 2′,2′-difluorodeoxycytidine], the inhibition at 1 µM in [2] (Homo sapiens, HEK293, 1 μM, read-out: inhibition of growth) is 75%. Besides, in [8], the Km was 50 µM and the kcat was 3.52 s⁻¹. In data set [9] (setting [20]), the Km amounted to 22 µM and the kcat turned out to be 0.37 s⁻¹. In addition, in data set [9] (wild type dCK), the “higher enzymatic efficiency compared to dC” value is approximately 4 fold and the “increase in kcat compared to dC” value was determined as 10 fold.
In the case of “R104L/D133A: modified human dCK, leucine at position 104, alanine at position 133, SEQ ID NO:10”, in data set [10], the Km is less than 25 µM; the “rate of phosphorylation, D-dT” value came to 2.86 s⁻¹; the “kobs D-dT” value stood at 2.86 ± 0.09 s⁻¹; the “Rel kobs (D-dT)” value was determined as 358. In addition, in data set [11], the “rate of phosphorylation, D-dC” value was determined as 0.27 s⁻¹; the “kobs D-dC” value was found to be 0.27 ± 0.09 s⁻¹; the “Rel kobs (D-dC)” value amounted to 9. For the same molecule, in data set [12], the “rate of phosphorylation, D-dG” value was 0.3 s⁻¹; the “kobs D-dG” value was found to be 0.30 ± 0.01 s⁻¹; the “Rel kobs (D-dG)” value is on record as 0.32. Moreover, in data set [13], the “kobs D-dA” value stood at 3.45 ± 0.16 s⁻¹ and the “Rel kobs (D-dA)” value was found to be 2.9. In data set [14], the “rate of phosphorylation, L-dT” value was found to be 1.07 s⁻¹; the “kobs L-dT” value came to 1.07 ± 0.09 s⁻¹; the “Rel kobs (L-dT)” value is on record as 63. Also, in [15], the “kobs AraC” value was found to be 0.64 ± 0.06 s⁻¹ and the “Rel kobs (AraC)” value was found to be 0.35. Also, in data set [16], the “rate of phosphorylation, L-dU” value was determined as 2.56 s⁻¹. For the same molecule, in data set [17], the “rate of phosphorylation, Gem” value was found to be 2.04 s⁻¹; the “kobs Gem” value was determined as 2.04 ± 0.03 s⁻¹; the “Rel kobs (Gem)” value is reported as 5.20.
With “R104Q/D133A: modified human dCK, glutamine at position 104, alanine at position 133, SEQ ID NO:8”, in data set [10], the “rate of phosphorylation, D-dT” value was 0.1 s⁻¹; the “kobs D-dT” value amounted to 0.10 ± 0.06 s⁻¹; the “Rel kobs (D-dT)” value came to 12.5. Further, in data set [11], the “rate of phosphorylation, D-dC” value was determined as 0.08 s⁻¹; the “kobs D-dC” value was 0.08 ± 0.01 s⁻¹; the “Rel kobs (D-dC)” value is 2.7. Further, in [12], the “rate of phosphorylation, D-dG” value was 0.06 s⁻¹; the “kobs D-dG” value worked out at 0.06 ± 0.01 s⁻¹; the “Rel kobs (D-dG)” value came out at 0.06. Moreover, in data set [13], the “kobs D-dA” value is 0.18 ± 0.04 s⁻¹ and the “Rel kobs (D-dA)” value came out at 0.15. Also, in data set [14], the “rate of phosphorylation, L-dT” value amounted to 0.15 s⁻¹; the “kobs L-dT” value was found to be 0.15 ± 0.02 s⁻¹; the “Rel kobs (L-dT)” value is recorded as 9. Further, in data set [15], the “kobs AraC” value was found to be 0.18 ± 0.01 s⁻¹ and the “Rel kobs (AraC)” value stood at 0.60. Moreover, in data set [16], the “rate of phosphorylation, L-dU” value came out at 0.14 s⁻¹. Moreover, in data set [17], the “rate of phosphorylation, Gem” value was determined as 0.17 s⁻¹; the “kobs Gem” value was 0.17 ± 0.04 s⁻¹; the “Rel kobs (Gem)” value amounted to 0.43.
“WT: wild type human deoxycytidine kinase, SEQ ID NO:1 [reference compound]”: in data set [10], the “kobs D-dT” value is 0.008 ± 0.001^b sec^−1 and the “Rel kobs (D-dT)” value is listed as 1. Also, in data set [11], the “rate of phosphorylation, D-dC” value turned out to be 0.03 s⁻¹; the “kobs D-dC” value is 0.03 ± 0.01^b sec^−1; the “Rel kobs (D-dC)” value worked out at 1. In addition, in data set [18], the Km was more than 3000 µM. Besides, in [12], the “rate of phosphorylation, D-dG” value was 0.94 s⁻¹; the “kobs D-dG” value was 0.94 ± 0.18 s⁻¹; the “Rel kobs (D-dG)” value is listed as 1. In [13], the “kobs D-dA” value came to 1.19 ± 0.01 s⁻¹ and the “Rel kobs (D-dA)” value was 1. In addition, in data set [14], the “kobs L-dT” value came to 0.017 ± 0.023 s⁻¹ and the “Rel kobs (L-dT)” value stood at 1. Also, in data set [15], the “kobs AraC” value is 0.30 ± 0.04^b sec^−1 and the “Rel kobs (AraC)” value was found to be 1.00. Also, in data set [17], the “rate of phosphorylation, Gem” value was 0.39 s⁻¹; the “kobs Gem” value amounted to 0.39 ± 0.01 s⁻¹; the “Rel kobs (Gem)” value is 1.00.
For the molecule “dCK S74E: dCK S74E mutant mimicking the Ser74 phosphorylated state [reference compound]”, the “increase of the rate of phosphorylation of dC” value in [19] was 11 fold.
